Laboratory results: patent US10500249B2, “Compositions and methods for preventing or treating diseases, conditions, or processes characterized by aberrant fibroblast proliferation and extracellular matrix deposition” (MOERAE MATRIX, INC., priority 2014, dated 2019)

Legend:
Assay in all cases: Kinase Profiling Assay
Assay type in all cases: biochemical
Conditions in all cases: 100 μM
Axl (h) = Axl (h) (Homo sapiens, UniProt P30530)
How it was run: (§1)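 Kinase inhibition by MK2 inhibitory peptides was profiled radiometrically, with substrate phosphorylation from labeled ATP read by scintillation after capture on a charged filter. Values are relative to 100% activity and measured in duplicate.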

STK33 (h) = STK33 (h) (Homo sapiens, UniProt Q9BYT3)
How it was run: as §1

MRCKβ (h) = molecular target: T1, MRCKβ (h) (Homo sapiens, UniProt Q9Y5S2)
T1 construct: purchased Millipore
T1 sequence (Q9Y5S2 whole entry): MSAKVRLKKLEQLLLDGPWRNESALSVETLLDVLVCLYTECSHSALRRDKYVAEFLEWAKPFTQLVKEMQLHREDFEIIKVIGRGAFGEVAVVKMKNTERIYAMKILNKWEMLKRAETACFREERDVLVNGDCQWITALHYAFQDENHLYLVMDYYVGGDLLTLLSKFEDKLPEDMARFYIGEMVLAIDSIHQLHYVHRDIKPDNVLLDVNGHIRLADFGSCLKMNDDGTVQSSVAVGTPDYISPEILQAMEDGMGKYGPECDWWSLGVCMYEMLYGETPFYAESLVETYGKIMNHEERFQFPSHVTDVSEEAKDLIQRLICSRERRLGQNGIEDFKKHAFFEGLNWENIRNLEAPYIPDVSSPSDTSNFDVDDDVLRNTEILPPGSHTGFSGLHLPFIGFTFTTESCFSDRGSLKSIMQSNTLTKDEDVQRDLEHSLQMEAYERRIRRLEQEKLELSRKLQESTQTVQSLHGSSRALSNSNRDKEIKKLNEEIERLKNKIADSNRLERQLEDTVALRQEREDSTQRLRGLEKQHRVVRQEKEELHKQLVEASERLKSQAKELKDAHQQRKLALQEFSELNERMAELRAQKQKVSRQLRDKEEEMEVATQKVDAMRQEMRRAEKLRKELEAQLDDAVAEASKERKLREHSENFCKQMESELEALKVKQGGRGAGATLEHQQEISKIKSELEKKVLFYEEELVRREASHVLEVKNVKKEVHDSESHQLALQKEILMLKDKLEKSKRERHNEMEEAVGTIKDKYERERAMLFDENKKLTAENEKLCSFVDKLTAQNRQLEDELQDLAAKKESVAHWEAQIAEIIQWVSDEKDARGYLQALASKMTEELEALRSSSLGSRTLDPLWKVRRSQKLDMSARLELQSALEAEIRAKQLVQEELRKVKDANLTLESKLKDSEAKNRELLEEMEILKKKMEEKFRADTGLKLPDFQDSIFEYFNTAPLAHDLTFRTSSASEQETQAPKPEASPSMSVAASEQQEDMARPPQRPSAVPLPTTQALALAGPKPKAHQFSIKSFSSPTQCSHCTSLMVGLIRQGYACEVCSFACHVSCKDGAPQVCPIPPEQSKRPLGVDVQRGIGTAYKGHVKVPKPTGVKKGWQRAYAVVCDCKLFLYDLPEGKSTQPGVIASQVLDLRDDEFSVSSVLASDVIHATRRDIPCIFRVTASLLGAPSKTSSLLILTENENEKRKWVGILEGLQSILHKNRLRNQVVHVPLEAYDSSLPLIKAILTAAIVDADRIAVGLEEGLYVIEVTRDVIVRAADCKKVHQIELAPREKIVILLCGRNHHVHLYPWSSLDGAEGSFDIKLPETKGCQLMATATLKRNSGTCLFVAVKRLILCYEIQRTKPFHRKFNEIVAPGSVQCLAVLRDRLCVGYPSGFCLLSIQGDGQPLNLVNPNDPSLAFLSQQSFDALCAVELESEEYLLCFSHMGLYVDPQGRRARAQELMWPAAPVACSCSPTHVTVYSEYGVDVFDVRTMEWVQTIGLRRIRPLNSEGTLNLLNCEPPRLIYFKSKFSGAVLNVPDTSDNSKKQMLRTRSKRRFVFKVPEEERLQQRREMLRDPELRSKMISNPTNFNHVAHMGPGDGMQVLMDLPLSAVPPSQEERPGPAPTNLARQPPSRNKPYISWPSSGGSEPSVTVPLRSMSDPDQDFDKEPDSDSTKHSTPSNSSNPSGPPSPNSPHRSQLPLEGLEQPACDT
How it was run: as §1

HIPK1 (h) = molecular target: T2, HIPK1 (h) (Homo sapiens, UniProt Q86Z02)
T2 construct: purchased Millipore
How it was run: as §1

CSK (h) = molecular target: T3, CSK (h) (Homo sapiens, UniProt P41240)
T3 construct: purchased Millipore
T3 sequence (P41240 whole entry): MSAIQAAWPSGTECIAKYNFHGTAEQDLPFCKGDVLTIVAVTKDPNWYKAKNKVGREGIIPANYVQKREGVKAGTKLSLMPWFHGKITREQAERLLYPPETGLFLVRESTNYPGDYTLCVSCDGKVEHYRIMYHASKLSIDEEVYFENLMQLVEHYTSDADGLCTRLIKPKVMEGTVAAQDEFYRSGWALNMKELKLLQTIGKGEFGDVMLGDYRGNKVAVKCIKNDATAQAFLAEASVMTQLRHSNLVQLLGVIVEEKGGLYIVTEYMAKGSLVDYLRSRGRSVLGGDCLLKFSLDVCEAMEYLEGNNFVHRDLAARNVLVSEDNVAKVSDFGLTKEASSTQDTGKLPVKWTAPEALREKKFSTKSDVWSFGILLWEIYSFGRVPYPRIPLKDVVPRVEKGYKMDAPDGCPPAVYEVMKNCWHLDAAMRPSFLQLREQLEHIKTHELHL
How it was run: as §1

Mnk2 (h) = molecular target: T4, Mnk2 (h) (Homo sapiens, UniProt Q9HBH9)
T4 construct: purchased Millipore
How it was run: as §1

PKCε (h) = molecular target: T5, PKCε (h) (Homo sapiens, UniProt Q02156)
T5 construct: purchased Millipore
T5 sequence (Q02156 1-737): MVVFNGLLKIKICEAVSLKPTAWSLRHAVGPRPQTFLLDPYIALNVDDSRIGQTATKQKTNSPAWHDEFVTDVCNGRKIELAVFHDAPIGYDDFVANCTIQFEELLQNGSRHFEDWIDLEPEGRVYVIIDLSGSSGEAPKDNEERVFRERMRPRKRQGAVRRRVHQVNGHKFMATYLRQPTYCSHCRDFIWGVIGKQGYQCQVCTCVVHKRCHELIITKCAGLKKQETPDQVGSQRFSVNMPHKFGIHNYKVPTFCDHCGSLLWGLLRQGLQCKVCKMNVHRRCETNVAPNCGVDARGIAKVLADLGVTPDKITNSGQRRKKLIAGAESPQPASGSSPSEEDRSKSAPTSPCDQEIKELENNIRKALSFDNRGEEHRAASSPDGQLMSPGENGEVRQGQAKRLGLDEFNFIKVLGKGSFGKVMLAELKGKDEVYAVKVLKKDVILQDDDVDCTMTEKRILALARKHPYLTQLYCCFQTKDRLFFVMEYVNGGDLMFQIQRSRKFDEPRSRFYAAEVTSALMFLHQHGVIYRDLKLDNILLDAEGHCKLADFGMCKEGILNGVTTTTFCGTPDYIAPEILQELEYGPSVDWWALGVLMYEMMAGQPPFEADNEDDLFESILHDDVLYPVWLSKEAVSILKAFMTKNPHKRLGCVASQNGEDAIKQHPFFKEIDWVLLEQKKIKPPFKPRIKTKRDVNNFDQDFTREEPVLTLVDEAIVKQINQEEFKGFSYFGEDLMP
How it was run: as §1

MINK (h) = molecular target: T6, MINK (h) (Homo sapiens, UniProt Q8N4C8)
T6 construct: purchased Millipore
How it was run: as §1

Fyn (h) = molecular target: T7, Fyn (h) (Homo sapiens, UniProt P06241)
T7 construct: purchased Millipore
T7 sequence (P06241 whole entry): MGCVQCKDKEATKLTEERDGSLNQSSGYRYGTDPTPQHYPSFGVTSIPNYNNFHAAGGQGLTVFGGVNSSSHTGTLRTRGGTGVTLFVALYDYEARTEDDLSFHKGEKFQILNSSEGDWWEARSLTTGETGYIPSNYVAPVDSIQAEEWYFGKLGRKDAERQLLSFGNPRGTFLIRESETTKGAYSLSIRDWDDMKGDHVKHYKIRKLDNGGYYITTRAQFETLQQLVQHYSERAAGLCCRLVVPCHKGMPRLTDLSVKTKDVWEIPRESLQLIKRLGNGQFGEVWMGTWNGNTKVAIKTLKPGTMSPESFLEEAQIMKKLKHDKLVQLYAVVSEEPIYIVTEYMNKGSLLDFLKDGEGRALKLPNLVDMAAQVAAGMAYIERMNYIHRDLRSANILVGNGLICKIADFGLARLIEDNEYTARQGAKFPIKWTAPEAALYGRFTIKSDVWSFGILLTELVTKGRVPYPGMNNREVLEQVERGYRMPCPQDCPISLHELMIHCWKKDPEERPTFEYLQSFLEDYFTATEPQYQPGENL
How it was run: as §1

ALK (h) = ALK (h) (Homo sapiens, UniProt Q9UM73)
How it was run: as §1

HIPK2 (h) = molecular target: T8, HIPK2 (h) (Homo sapiens, UniProt Q9H2X6)
T8 construct: purchased Millipore
How it was run: as §1

Met(M1268T) (h) = Met(M1268T) (h) (Homo sapiens, UniProt P08581, M1250T)
How it was run: as §1

PRAK (h) = molecular target: T9, PRAK (h) (Homo sapiens, UniProt Q8IW41)
T9 sequence (Q8IW41 1-473): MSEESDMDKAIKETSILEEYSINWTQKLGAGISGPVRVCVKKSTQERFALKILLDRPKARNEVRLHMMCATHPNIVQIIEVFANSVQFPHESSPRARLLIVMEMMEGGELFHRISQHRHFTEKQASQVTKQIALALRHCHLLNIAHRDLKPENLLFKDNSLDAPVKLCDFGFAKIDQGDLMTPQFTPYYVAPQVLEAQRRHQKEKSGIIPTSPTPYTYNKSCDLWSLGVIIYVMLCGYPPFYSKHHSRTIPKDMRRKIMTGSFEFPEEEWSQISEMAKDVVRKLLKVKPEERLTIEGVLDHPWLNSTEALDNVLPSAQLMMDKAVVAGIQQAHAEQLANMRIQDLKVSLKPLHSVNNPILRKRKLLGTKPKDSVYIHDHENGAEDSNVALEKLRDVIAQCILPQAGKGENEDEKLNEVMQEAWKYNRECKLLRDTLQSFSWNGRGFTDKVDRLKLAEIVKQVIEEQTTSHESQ
How it was run: as §1

Rsk3 (h) = Rsk3 (h) (Homo sapiens, UniProt Q15349)
How it was run: as §1

CDK1/cyclinB (h) = molecular target: T10, CDK1/cyclinB (h) (Homo sapiens, UniProt P06493)
T10 construct: purchased Millipore
How it was run: as §1

WNK2 (h) = WNK2 (h) (Homo sapiens, UniProt Q9Y3S1)
WNK2 (h), sequence (Q9Y3S1 whole entry): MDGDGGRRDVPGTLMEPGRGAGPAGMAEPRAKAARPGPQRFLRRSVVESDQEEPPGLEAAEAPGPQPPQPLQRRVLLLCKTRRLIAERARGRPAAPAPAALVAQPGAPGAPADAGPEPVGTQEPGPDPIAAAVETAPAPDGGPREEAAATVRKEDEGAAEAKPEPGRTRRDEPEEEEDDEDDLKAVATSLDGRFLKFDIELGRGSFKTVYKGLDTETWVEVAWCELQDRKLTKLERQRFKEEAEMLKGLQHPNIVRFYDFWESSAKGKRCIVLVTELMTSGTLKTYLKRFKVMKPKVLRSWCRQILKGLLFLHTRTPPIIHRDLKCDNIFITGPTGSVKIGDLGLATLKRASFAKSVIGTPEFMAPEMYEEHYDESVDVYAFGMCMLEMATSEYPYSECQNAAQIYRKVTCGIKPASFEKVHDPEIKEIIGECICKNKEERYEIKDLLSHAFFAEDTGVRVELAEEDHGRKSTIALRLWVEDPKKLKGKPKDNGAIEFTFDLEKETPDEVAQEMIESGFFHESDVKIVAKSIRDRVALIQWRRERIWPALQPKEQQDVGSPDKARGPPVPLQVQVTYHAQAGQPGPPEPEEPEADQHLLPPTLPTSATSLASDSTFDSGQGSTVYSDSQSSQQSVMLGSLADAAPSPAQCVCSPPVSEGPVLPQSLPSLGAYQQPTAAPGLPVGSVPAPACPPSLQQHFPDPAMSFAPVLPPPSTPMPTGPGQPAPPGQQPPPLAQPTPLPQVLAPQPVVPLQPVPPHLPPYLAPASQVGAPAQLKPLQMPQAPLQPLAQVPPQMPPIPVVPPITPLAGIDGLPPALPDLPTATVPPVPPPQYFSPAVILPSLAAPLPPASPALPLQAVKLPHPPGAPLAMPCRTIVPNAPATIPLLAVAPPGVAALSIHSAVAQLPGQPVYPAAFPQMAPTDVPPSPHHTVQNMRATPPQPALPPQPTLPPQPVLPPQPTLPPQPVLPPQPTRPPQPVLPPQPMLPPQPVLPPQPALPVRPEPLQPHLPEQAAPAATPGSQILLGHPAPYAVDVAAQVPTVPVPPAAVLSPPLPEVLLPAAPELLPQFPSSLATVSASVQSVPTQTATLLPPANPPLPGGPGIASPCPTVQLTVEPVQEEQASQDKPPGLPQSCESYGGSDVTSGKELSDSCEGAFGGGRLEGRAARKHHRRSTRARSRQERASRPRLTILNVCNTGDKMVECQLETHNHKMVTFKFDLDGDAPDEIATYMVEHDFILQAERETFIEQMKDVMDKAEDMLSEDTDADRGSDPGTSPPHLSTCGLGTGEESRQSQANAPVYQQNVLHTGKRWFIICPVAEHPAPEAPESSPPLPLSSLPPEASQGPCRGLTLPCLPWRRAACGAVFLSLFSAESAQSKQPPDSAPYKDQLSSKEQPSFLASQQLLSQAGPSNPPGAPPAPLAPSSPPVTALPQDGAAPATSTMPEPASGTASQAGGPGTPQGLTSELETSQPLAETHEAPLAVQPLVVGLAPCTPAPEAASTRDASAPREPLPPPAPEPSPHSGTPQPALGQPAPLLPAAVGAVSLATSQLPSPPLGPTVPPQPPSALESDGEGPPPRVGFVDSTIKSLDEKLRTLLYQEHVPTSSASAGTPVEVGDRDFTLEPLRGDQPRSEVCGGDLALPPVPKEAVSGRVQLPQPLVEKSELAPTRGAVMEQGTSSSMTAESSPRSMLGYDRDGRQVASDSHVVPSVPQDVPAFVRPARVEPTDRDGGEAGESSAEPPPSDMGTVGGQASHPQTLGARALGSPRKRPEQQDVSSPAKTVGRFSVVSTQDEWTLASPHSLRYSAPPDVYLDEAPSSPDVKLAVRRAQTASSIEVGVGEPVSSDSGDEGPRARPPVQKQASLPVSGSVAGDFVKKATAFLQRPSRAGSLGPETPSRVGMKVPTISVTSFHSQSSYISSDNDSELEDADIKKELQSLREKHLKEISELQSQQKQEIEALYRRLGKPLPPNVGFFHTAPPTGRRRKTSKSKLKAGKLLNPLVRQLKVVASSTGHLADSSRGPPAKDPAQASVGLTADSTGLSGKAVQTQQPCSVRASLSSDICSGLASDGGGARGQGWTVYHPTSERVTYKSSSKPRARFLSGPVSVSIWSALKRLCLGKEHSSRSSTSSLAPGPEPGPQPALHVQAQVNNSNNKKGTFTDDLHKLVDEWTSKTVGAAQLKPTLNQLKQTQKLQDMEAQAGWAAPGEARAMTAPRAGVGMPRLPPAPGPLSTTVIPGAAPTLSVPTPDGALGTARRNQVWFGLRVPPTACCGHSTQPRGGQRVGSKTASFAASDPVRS
How it was run: as §1

CDK2/cyclinE (h) = molecular target: T11, CDK2/cyclinE (h) (Homo sapiens, UniProt P24941)
T11 construct: purchased Millipore
How it was run: as §1

Abl(T315I) (h) = Abl(T315I) (h) (Homo sapiens, UniProt P00519, T315I)
How it was run: as §1

Met(Y1248H) (h) = Met(Y1248H) (h) (Homo sapiens, UniProt P08581, Y1230H)
How it was run: as §1

For FAKLAARLYRKALARQLGVAA [MMI-0300], the “% activity” value (Axl (h)) was 52%, the “% activity” value (STK33 (h)) was 45% and the “% activity” value (MRCKβ (h)) was 83%. For the same sequence, the “% activity” value (HIPK1 (h)) was 74%, the “% activity” value (CSK (h)) was 49% and the “% activity” value (Mnk2 (h)) was 89%. The “% activity” value (PKCε (h)) was 79%, the “% activity” value (MINK (h)) was 48% and the “% activity” value (Fyn (h)) was 74%. For the same sequence, the “% activity” value (ALK (h)) was 19%, the “% activity” value (HIPK2 (h)) was 73% and the “% activity” value (Met(M1268T) (h)) was 255%. The “% activity” value (PRAK (h)) was 128%, the “% activity” value (Rsk3 (h)) was 76% and the “% activity” value (CDK1/cyclinB (h)) was 73%. The “% activity” value (WNK2 (h)) was 64%, the “% activity” value (CDK2/cyclinE (h)) was 94% and the “% activity” value (Abl(T315I) (h)) was 97%.

In the case of “HRRIKAWLKKIKALARQLGVAA (Mammalian) [MMI-0500]”, the “% activity” value (Axl (h)) is reported as 12%, the “% activity” value (STK33 (h)) is reported as 16% and the “% activity” value (MRCKβ (h)) is reported as −10%. The “% activity” value (HIPK1 (h)) was 47%, the “% activity” value (CSK (h)) was 2% and the “% activity” value (Mnk2 (h)) was 6%. The “% activity” value (PKCε (h)) was 23%, the “% activity” value (MINK (h)) was 5% and the “% activity” value (Fyn (h)) was 83%. For the same sequence, the “% activity” value (ALK (h)) was 12%, the “% activity” value (HIPK2 (h)) was 38% and the “% activity” value (Met(M1268T) (h)) was 239%. For the same sequence, the “% activity” value (PRAK (h)) was 95%, the “% activity” value (Rsk3 (h)) was 23% and the “% activity” value (CDK1/cyclinB (h)) was 57%. The “% activity” value (WNK2 (h)) was 8%, the “% activity” value (CDK2/cyclinE (h)) was 19% and the “% activity” value (Met(Y1248H) (h)) was 126%. For the same sequence, the “% activity” value (Abl(T315I) (h)) was 16%.

In the case of KAFAKLAARLYRKALARQLGVAA [MMI-0400], the “% activity” value (Axl (h)) is reported as 41%, the “% activity” value (STK33 (h)) is reported as 52% and the “% activity” value (MRCKβ (h)) is reported as 71%. For the same sequence, the “% activity” value (HIPK1 (h)) was 91%, the “% activity” value (CSK (h)) was 16% and the “% activity” value (Mnk2 (h)) was 86%. For the same sequence, the “% activity” value (PKCε (h)) was 59%, the “% activity” value (MINK (h)) was 52% and the “% activity” value (Fyn (h)) was 54%. For the same sequence, the “% activity” value (ALK (h)) was 16%, the “% activity” value (HIPK2 (h)) was 90% and the “% activity” value (Met(M1268T) (h)) was 265%. The “% activity” value (PRAK (h)) was 118%, the “% activity” value (Rsk3 (h)) was 71% and the “% activity” value (CDK1/cyclinB (h)) was 74%. For the same sequence, the “% activity” value (WNK2 (h)) was 54%, the “% activity” value (CDK2/cyclinE (h)) was 83% and the “% activity” value (Met(Y1248H) (h)) was 63%.

With “YARAAARQARAKALNRQLGVA (Mammalian) [MMI-0200]” the “% activity” value (Axl (h)) was 99%, the “% activity” value (STK33 (h)) was 98% and the “% activity” value (CSK (h)) was 33%. The “% activity” value (PKCε (h)) was 98%, the “% activity” value (Fyn (h)) was 75% and the “% activity” value (ALK (h)) was 95%. For the same sequence, the “% activity” value (Met(M1268T) (h)) was 143%, the “% activity” value (WNK2 (h)) was 94% and the “% activity” value (Met(Y1248H) (h)) was 153%. The “% activity” value (Abl(T315I) (h)) was 108%.
